The target in test [1] is (His)6-tagged Pf-Ubc9 (Plasmodium falciparum). As to the kind of experiment: pull-down.
The target in test [2] is Hs-Ubc9 (human E2 conjugating enzyme Ubc9), untagged (human) (UniProt P63279). As to the kind of experiment: ITC. In general terms: Isothermal titration calorimetry measures the heat released or taken up as one component is titrated into another.
The target in test [3] is Pf-Ubc9 (Plasmodium falciparum E2 conjugating enzyme), untagged (Plasmodium falciparum). As to the kind of experiment: ITC.
Test [4] concerns the target (His)6-tagged Hs-Ubc9 (human) (UniProt P63279). As to the kind of experiment: pull-down.
The target in test [5] is Hs-Ubc9 (human E2 conjugating enzyme Ubc9), untagged (human) (UniProt P63279).
Test [6] has as its target Pf-SUMO D90A mutant, untagged (ITC, SPR, NMR) (Plasmodium falciparum). As to the kind of experiment: SPR. Background: Surface plasmon resonance follows binding to a sensor surface in real time, without labels.

As usually defined, the Kd is the equilibrium constant for the complex coming apart. Read a high Kd as lower affinity.

As for “Hs-SUMO1 as prepared for pull-down and SUMOylation assays (GST-tagged preparation) (from UniProt P63165 1-97) (natural protein)”, the relative binding affinity (quantified pull-down) in test [1] was 12%. For the substance “Pf-SUMO (Plasmodium falciparum SUMO, mature form Pf-SUMO-GG), untagged (natural protein)”, the Kd amounted to 27.4 µM in test [2] and 4.05 µM in test [3]. The substance “Pf-SUMO D68A mutant (pull-down preparation) (natural protein)” registered a reduction of binding against Pf-SUMO wild type (quantified pull-down) in test [4] of 90%. Same read-out and setting: as for “Pf-SUMO D68K mutant (pull-down preparation) (natural protein)”, the figure is 90%. In the case of “Pf-SUMO D90A mutant (pull-down preparation) (natural protein)”, the reduction of binding against Pf-SUMO wild type (quantified pull-down) in test [4] was 90%. On to “Pf-SUMO D90A mutant, untagged (ITC, SPR, NMR) (natural protein)”, for which the Kd in test [3] amounted to 2.5 µM. Besides, the fold change of the dissociation constant against the wild type in test [5] came out at 4 fold. “Pf-SUMO D90K mutant (pull-down preparation) (natural protein)” registered a reduction of binding against Pf-SUMO wild type (quantified pull-down) in test [4] of 90%. “Pf-SUMO wild type as prepared for pull-down and SUMOylation assays (GST-tagged preparation) (natural protein)” came in with a relative affinity (quantified pull-down) in test [4] of 67%. In the case of “Pf-Ubc9 (Plasmodium falciparum E2 conjugating enzyme), untagged”, in test [6], the Kd turned out to be 3.02 µM.

The values above are taken from paper doi:10.1101/2021.08.18.456755.
